The results in this text go back to patent US20230406961A1 (DEUTSCHES KREBSFORSCHUNGSZENTRUM STIFTUNG DES FFENTLICHEN …, published 2023).

In this assay the target is T1, CD28 expressed on human CD4+ and CD8+ T cells (human, UniProt P10747 19-220).
T1 construct: whole, on cells; also called T-cell-specific surface glycoprotein CD28
The assay can be described thus: flow cytometry after incubation of PBMC with the constructs. The procedure: Binding of the variants to normal human T cells was determined after incubation of PBMC with the respective constructs and subsequent analysis by flow cytometry

B1: bispecific endoglinxCD28 antibody in the IgGsc format, BiCo variant Hc-L (bispecific antibody)
heavy: QVQLVQSGAEVKKPGASVKVSCKASGYTFTSYWMHWVRQAPGQGLEWIGNIYPGSGSTFYDEKFKGRATLTVDTSISTAYMELSRLRSDDTAVYYCTRRNYVTGFDYWGQGTTVTVSSASTKGPSVFPLAPSSKSTSGGTAALGCLVKDYFPEPVTVSWNSGALTSGVHTFPAVLQSSGLYSLSSVVTVPSSSLGTQTYICNVNHKPSNTKVDKKVEPKSCDKTHTCPPCPAPPVAGPSVFLFPPKPKDTLMISRTPEVTCVVVGVSHEDPEVKFNWYVDGVEVHNAKTKPREEQYNSTYRVVSVLTVLHQDWLNGKEYKCKVSNKQLPSPIEKTISKAKGQPREPQVYTLPPSRDELTKNQVSLTCLVKGFYPSDIAVEWESNGQPENNYKTTPPVLDSDGSFFLYSKLTVDKSRWQQGNVFSCSVMHEALHNHYTQKSLSLSPGKASQVQLVESGGGVVQPGRSLRLSCAASGFSLSDYGVHWVRQAPGKGLEWLGVIWAGGGTNYNSALMSRKTISKDNSKNTVYLQMNSLRAEDTAVYYCARDKGYSYYYSMDYWGQGTTVTVSSGGGGSGGGGSGGGGSDIQMTQSPSTLSASVGDRVTIICRASESVEYYVTSLMQWYQQKPGKAPKLLIFAASNVESGVPSRFSGSGSGTEFTLTISSLQPDDFATYYCQQSRKVPYTFGQGTKLEIKR
light: DIQLTQSPSFLSASVGDRVTITCKSSQSVLYSSNQKNYLAWYQQKPGKAPKLLIYWASTRESGVPSRFSGSGSGTEFTLTISSLQPEDFATYYCHQYLSSYTFGQGTKLEIKRTVAAPSVFIFPPSDEQLKSGTASVVCLLNNFYPREAKVQWKVDNALQSGNSQESVTEQDSKDSTYSLSSTLTLSKADYEKHKVYACEVTHQGLSSPVTKSFNRGEC
notes: Humanized endoglin IgG (K-ro22-2 / K-ro22-6), FcKO, with the CD28 scFv (9.3-8, Vh-Vl) fused to the C-terminus of the heavy chain without the long linker
For the molecule B1, the binding result was “binds”.

B2: bispecific endoglinxCD28 antibody in the IgGsc format, BiCo variant Lc-L (bispecific antibody)
heavy: QVQLVQSGAEVKKPGASVKVSCKASGYTFTSYWMHWVRQAPGQGLEWIGNIYPGSGSTFYDEKFKGRATLTVDTSISTAYMELSRLRSDDTAVYYCTRRNYVTGFDYWGQGTTVTVSSASTKGPSVFPLAPSSKSTSGGTAALGCLVKDYFPEPVTVSWNSGALTSGVHTFPAVLQSSGLYSLSSVVTVPSSSLGTQTYICNVNHKPSNTKVDKKVEPKSCDKTHTCPPCPAPPVAGPSVFLFPPKPKDTLMISRTPEVTCVVVGVSHEDPEVKFNWYVDGVEVHNAKTKPREEQYNSTYRVVSVLTVLHQDWLNGKEYKCKVSNKQLPSPIEKTISKAKGQPREPQVYTLPPSRDELTKNQVSLTCLVKGFYPSDIAVEWESNGQPENNYKTTPPVLDSDGSFFLYSKLTVDKSRWQQGNVFSCSVMHEALHNHYTQKSLSLSPGK
light: DIQLTQSPSFLSASVGDRVTITCKSSQSVLYSSNQKNYLAWYQQKPGKAPKLLIYWASTRESGVPSRFSGSGSGTEFTLTISSLQPEDFATYYCHQYLSSYTFGQGTKLEIKRTVAAPSVFIFPPSDEQLKSGTASVVCLLNNFYPREAKVQWKVDNALQSGNSQESVTEQDSKDSTYSLSSTLTLSKADYEKHKVYACEVTHQGLSSPVTKSFNRGECASQVQLVESGGGVVQPGRSLRLSCAASGFSLSDYGVHWVRQAPGKGLEWLGVIWAGGGTNYNSALMSRKTISKDNSKNTVYLQMNSLRAEDTAVYYCARDKGYSYYYSMDYWGQGTTVTVSSGGGGSGGGGSGGGGSDIQMTQSPSTLSASVGDRVTIICRASESVEYYVTSLMQWYQQKPGKAPKLLIFAASNVESGVPSRFSGSGSGTEFTLTISSLQPDDFATYYCQQSRKVPYTFGQGTKLEIKR
notes: Humanized endoglin IgG, FcKO heavy chain, with the CD28 scFv (9.3-8, Vh-Vl) fused to the C-terminus of the kappa light chain without the long linker
Regarding B2, the binding result is reported as “binds”.

B3: bispecific endoglinxCD28 antibody in the IgGsc format, BiCo variant Lc+L (bispecific antibody)
heavy: B2 heavy
light: DIQLTQSPSFLSASVGDRVTITCKSSQSVLYSSNQKNYLAWYQQKPGKAPKLLIYWASTRESGVPSRFSGSGSGTEFTLTISSLQPEDFATYYCHQYLSSYTFGQGTKLEIKRTVAAPSVFIFPPSDEQLKSGTASVVCLLNNFYPREAKVQWKVDNALQSGNSQESVTEQDSKDSTYSLSSTLTLSKADYEKHKVYACEVTHQGLSSPVTKSFNRGECASGGGGSGGGGSGGGGSQVQLVESGGGVVQPGRSLRLSCAASGFSLSDYGVHWVRQAPGKGLEWLGVIWAGGGTNYNSALMSRKTISKDNSKNTVYLQMNSLRAEDTAVYYCARDKGYSYYYSMDYWGQGTTVTVSSGGGGSGGGGSGGGGSDIQMTQSPSTLSASVGDRVTIICRASESVEYYVTSLMQWYQQKPGKAPKLLIFAASNVESGVPSRFSGSGSGTEFTLTISSLQPDDFATYYCQQSRKVPYTFGQGTKLEIKR
notes: Humanized endoglin IgG, FcKO heavy chain, with the CD28 scFv (9.3-8, Vh-Vl) fused to the C-terminus of the kappa light chain through a (GGGGS)3 linker; also called BiCo-1; Bico1
With B3, the binding result is given as “binds”.
